Test results: patent US5480971A, “Peralkylated oligopeptide mixtures” (Houghten Pharmaceuticals, Inc., priority 1994, dated 1996)
Square brackets hold non-standard residues; d marks the D form. Ends that are not written are not given here. Peptide text beside a SMILES is read from it. * marks the point of attachment. NMeF = CN[C@@H](Cc1ccccc1)C(=O)O; X3 = C[C@@H](C(=O)*)[N+](C)(C)C; NMeL = CN[C@@H](CC(C)C)C(=O)O; Sar = CNCC(=O)O

Assays:
Format in all cases: in vitro ADME
chymotrypsin = assay: Enzymatic susceptibility to chymotrypsin (RP-HPLC, mass spectral analysis); details: peptide 1.0 mg/ml, enzyme to peptide 1:50, 0.1M NH4HCO3 pH 7.8, room temperature
Protocol: (§1) The stability of N-permethylated compounds to proteolysis was examined for two permethylated sequences, AlaGlyGlyPheLeu-NH2 (SEQ ID NO:37) and ArgGlyGlyPheLeu-NH2 (SEQ ID NO:38) with their non-permethylated equivalents used as controls. Treatment of these found compounds by trypsin and chymotrypsin was monitored by RP-HPLC and mass spectral analysis. Rapid cleavage of AGGFL-NH2 (SEQ ID NO:37) by chymotrypsin and RGGFL-NH2 (SEQ ID N0:38) by trypsin was observed (<1 hour), whereas less than 1 percent cleavage of the equivalent permethylated peptides was seen following overnight enzyme exposure.
(§2) The assays were performed in 1 ml 0.1M NH4 HCO3, pH 7.8, at room temperature for 16 hours at a peptide concentration of 1.0 mg/ml. Enzyme to peptide concentration was 1:50.

trypsin = assay: Enzymatic susceptibility to trypsin (RP-HPLC, mass spectral analysis); details: peptide 1.0 mg/ml, enzyme to peptide 1:50, 0.1M NH4HCO3 pH 7.8, room temperature
Protocol: as §1, §2

[1] = Enzymatic susceptibility to chymotrypsin (RP-HPLC, mass spectral analysis); details: chymotrypsin; overnight enzyme exposure (16 hours), room temperature, pH 7.8; read-out: cleavage by chymotrypsin
Protocol: as §1, §2

With “AlaGlyGlyPheLeu-NH2 (AGGFL-NH2) [non-permethylated equivalent used as control, reference compound]” the “time in which cleavage by chymotrypsin was observed” value (chymotrypsin) was under 1 h.

With “ArgGlyGlyPheLeu-NH2 (RGGFL-NH2) [non-permethylated equivalent used as control]” the “time in which cleavage by trypsin was observed” value (trypsin) was under 1 h.

For `CNC(=O)[C@H](CC(C)C)N(C)C(=O)[C@H](Cc1ccccc1)N(C)C(=O)CN(C)C(=O)CN(C)C(=O)[C@H](C)[N+](C)(C)C` [PerA-AGGFL] (X3-[Sar][Sar][NMeF][NMeL]-NHMe), the metabolised at 16 h, 1 mg/ml [1] was under 1%.
